In article doi:10.1101/2025.06.05.658000 one finds fold decline of binding affinity compared to RBD WT data, which are given here for two substances.

Assay [1] addresses HLA-DR (DRA1*01:01 / DRB1*04:05), soluble knob-into-hole Fc heterodimer (human). Briefly: ELISA. (In general: ELISA stands for enzyme-linked immunosorbent assay.)
Assay [2] deals with HLA-DR (DRA1*01:01 / DRB1*11:04), soluble knob-into-hole Fc heterodimer (human). Nature of the assay: ELISA.

As for “SARS-CoV-2 RBD peptide RBD447-461 of the Omicron BA.5 variant (from UniProt P0DTC2 447-461)”, the fold decline of binding affinity compared to RBD WT in assay [1] and in assay [2] was more than 16 fold in each case.

As to “SARS-CoV-2 RBD peptide RBD447-461 of the BA.2.86 variant (from UniProt P0DTC2 447-461)”, the fold decline of binding affinity compared to RBD WT in assay [1] and in assay [2] was more than 16 fold throughout.
